± gives the uncertainty stated by the source.
Test: abundance fitness (aPCA) (normalised: wild type 0, dead -1); higher = more abundant; growth selection in yeast, the domain comes from the species named
Details: Homo sapiens

| Substance | abundance fitness |
| --- | --- |
| Scaffold attachment factor B1 L57A, Q15424 | -0.462 ± 0.062 |
| Scaffold attachment factor B1 L57D, Q15424 | -0.202 ± 0.061 |
| Scaffold attachment factor B1 L57F, Q15424 | -1.21 ± 0.1 |
| Scaffold attachment factor B1 L57G, Q15424 | -0.759 ± 0.069 |
| Scaffold attachment factor B1 L57H, Q15424 | -0.842 ± 0.1 |
| Scaffold attachment factor B1 L57I, Q15424 | -0.32 ± 0.077 |
| Scaffold attachment factor B1 L57K, Q15424 | -0.598 ± 0.088 |
| Scaffold attachment factor B1 L57M, Q15424 | -0.272 ± 0.074 |
| Scaffold attachment factor B1 L57N, Q15424 | -0.521 ± 0.067 |
| Scaffold attachment factor B1 L57P, Q15424 | -0.62 ± 0.074 |
| Scaffold attachment factor B1 L57Q, Q15424 | -0.527 ± 0.074 |
| Scaffold attachment factor B1 L57R, Q15424 | -0.754 ± 0.054 |
| Scaffold attachment factor B1 L57S, Q15424 | -0.584 ± 0.052 |
| Scaffold attachment factor B1 L57V, Q15424 | -0.417 ± 0.065 |
| Scaffold attachment factor B1 L57W, Q15424 | -1.37 ± 0.1 |
| Scaffold attachment factor B1 L57Y, Q15424 | -1.23 ± 0.095 |
| Scaffold attachment factor B1 L61C, Q15424 | -0.41 ± 0.055 |
| Scaffold attachment factor B1 L61D, Q15424 | -0.615 ± 0.086 |
| Scaffold attachment factor B1 L61E, Q15424 | -0.484 ± 0.06 |
| Scaffold attachment factor B1 L61F, Q15424 | -0.299 ± 0.067 |
| Scaffold attachment factor B1 L61G, Q15424 | -0.511 ± 0.051 |
| Scaffold attachment factor B1 L61H, Q15424 | -0.611 ± 0.085 |

| Substance | abundance fitness |
| --- | --- |
| Scaffold attachment factor B1 L61I, Q15424 | -0.614 ± 0.12 |
| Scaffold attachment factor B1 L61K, Q15424 | -0.788 ± 0.12 |
| Scaffold attachment factor B1 L61M, Q15424 | -0.336 ± 0.083 |
| Scaffold attachment factor B1 L61N, Q15424 | -0.716 ± 0.13 |
| Scaffold attachment factor B1 L61P, Q15424 | -0.583 ± 0.09 |
| Scaffold attachment factor B1 L61R, Q15424 | -0.644 ± 0.057 |
| Scaffold attachment factor B1 L61S, Q15424 | -0.508 ± 0.062 |
| Scaffold attachment factor B1 L61T, Q15424 | -0.393 ± 0.078 |
| Scaffold attachment factor B1 L61V, Q15424 | -0.311 ± 0.065 |
| Scaffold attachment factor B1 L61W, Q15424 | -0.649 ± 0.052 |
| Scaffold attachment factor B1 L61Y, Q15424 | -0.351 ± 0.072 |
| Scaffold attachment factor B1 M58A, Q15424 | -0.224 ± 0.063 |
| Scaffold attachment factor B1 M58C, Q15424 | -0.289 ± 0.083 |
| Scaffold attachment factor B1 M58D, Q15424 | -0.582 ± 0.078 |
| Scaffold attachment factor B1 M58F, Q15424 | -0.204 ± 0.075 |
| Scaffold attachment factor B1 M58G, Q15424 | -0.368 ± 0.056 |
| Scaffold attachment factor B1 M58H, Q15424 | -0.344 ± 0.079 |
| Scaffold attachment factor B1 M58I, Q15424 | -0.151 ± 0.071 |
| Scaffold attachment factor B1 M58K, Q15424 | -0.253 ± 0.086 |
| Scaffold attachment factor B1 M58L, Q15424 | -0.106 ± 0.058 |
| Scaffold attachment factor B1 M58N, Q15424 | -0.37 ± 0.097 |
| Scaffold attachment factor B1 M58P, Q15424 | -0.598 ± 0.1 |

| Substance | abundance fitness |
| --- | --- |
| Scaffold attachment factor B1 M58R, Q15424 | -0.205 ± 0.059 |
| Scaffold attachment factor B1 M58S, Q15424 | -0.16 ± 0.064 |
| Scaffold attachment factor B1 M58V, Q15424 | -0.114 ± 0.064 |
| Scaffold attachment factor B1 M58W, Q15424 | -0.439 ± 0.069 |
| Scaffold attachment factor B1 M58Y, Q15424 | -0.341 ± 0.079 |
| Scaffold attachment factor B1 N47A, Q15424 | -0.236 ± 0.056 |
| Scaffold attachment factor B1 N47C, Q15424 | -0.274 ± 0.073 |
| Scaffold attachment factor B1 N47D, Q15424 | -0.167 ± 0.085 |
| Scaffold attachment factor B1 N47E, Q15424 | -0.168 ± 0.074 |
| Scaffold attachment factor B1 N47H, Q15424 | -0.349 ± 0.076 |
| Scaffold attachment factor B1 N47I, Q15424 | -0.822 ± 0.09 |
| Scaffold attachment factor B1 N47K, Q15424 | -0.349 ± 0.1 |
| Scaffold attachment factor B1 N47L, Q15424 | -0.365 ± 0.061 |
| Scaffold attachment factor B1 N47M, Q15424 | -0.224 ± 0.073 |
| Scaffold attachment factor B1 N47P, Q15424 | -1.01 ± 0.11 |
| Scaffold attachment factor B1 N47Q, Q15424 | -0.227 ± 0.067 |
| Scaffold attachment factor B1 N47R, Q15424 | -0.207 ± 0.065 |
| Scaffold attachment factor B1 N47S, Q15424 | -0.236 ± 0.07 |
| Scaffold attachment factor B1 N47T, Q15424 | -0.331 ± 0.066 |
| Scaffold attachment factor B1 N47V, Q15424 | -0.448 ± 0.056 |
| Scaffold attachment factor B1 N47W, Q15424 | -0.593 ± 0.079 |
| Scaffold attachment factor B1 N47Y, Q15424 | -0.483 ± 0.088 |

| Substance | abundance fitness |
| --- | --- |
| Scaffold attachment factor B1 N53A, Q15424 | -0.175 ± 0.056 |
| Scaffold attachment factor B1 N53C, Q15424 | -0.138 ± 0.083 |
| Scaffold attachment factor B1 N53D, Q15424 | -0.038 ± 0.068 |
| Scaffold attachment factor B1 N53E, Q15424 | -0.198 ± 0.087 |
| Scaffold attachment factor B1 N53F, Q15424 | -0.354 ± 0.048 |
| Scaffold attachment factor B1 N53G, Q15424 | -0.08 ± 0.057 |
| Scaffold attachment factor B1 N53H, Q15424 | -0.127 ± 0.071 |
| Scaffold attachment factor B1 N53I, Q15424 | -0.27 ± 0.084 |
| Scaffold attachment factor B1 N53M, Q15424 | -0.376 ± 0.063 |
| Scaffold attachment factor B1 N53P, Q15424 | -0.284 ± 0.06 |
| Scaffold attachment factor B1 N53Q, Q15424 | -0.288 ± 0.089 |
| Scaffold attachment factor B1 N53R, Q15424 | -0.067 ± 0.049 |
| Scaffold attachment factor B1 N53S, Q15424 | -0.085 ± 0.051 |
| Scaffold attachment factor B1 N53V, Q15424 | -0.158 ± 0.056 |
| Scaffold attachment factor B1 N53W, Q15424 | -0.712 ± 0.059 |
| Scaffold attachment factor B1 N71A, Q15424 | -0.329 ± 0.071 |
| Scaffold attachment factor B1 N71C, Q15424 | -0.207 ± 0.07 |
| Scaffold attachment factor B1 N71D, Q15424 | -0.247 ± 0.1 |
| Scaffold attachment factor B1 N71E, Q15424 | -0.36 ± 0.072 |
| Scaffold attachment factor B1 N71F, Q15424 | -0.338 ± 0.068 |
| Scaffold attachment factor B1 N71H, Q15424 | -0.309 ± 0.1 |
| Scaffold attachment factor B1 N71I, Q15424 | -0.468 ± 0.1 |

| Substance | abundance fitness |
| --- | --- |
| Scaffold attachment factor B1 N71K, Q15424 | -0.253 ± 0.073 |
| Scaffold attachment factor B1 N71L, Q15424 | -0.299 ± 0.062 |
| Scaffold attachment factor B1 N71M, Q15424 | -0.3 ± 0.057 |
| Scaffold attachment factor B1 N71P, Q15424 | -0.365 ± 0.076 |
| Scaffold attachment factor B1 N71Q, Q15424 | -0.263 ± 0.095 |
| Scaffold attachment factor B1 N71S, Q15424 | -0.19 ± 0.063 |
| Scaffold attachment factor B1 N71T, Q15424 | -0.267 ± 0.092 |
| Scaffold attachment factor B1 N71V, Q15424 | -0.211 ± 0.055 |
| Scaffold attachment factor B1 N71W, Q15424 | -0.39 ± 0.057 |
| Scaffold attachment factor B1 N71Y, Q15424 | -0.448 ± 0.094 |
| Scaffold attachment factor B1 P72A, Q15424 | -0.187 ± 0.07 |
| Scaffold attachment factor B1 P72C, Q15424 | -0.103 ± 0.061 |
| Scaffold attachment factor B1 P72D, Q15424 | -0.407 ± 0.1 |
| Scaffold attachment factor B1 P72E, Q15424 | -0.302 ± 0.068 |
| Scaffold attachment factor B1 P72F, Q15424 | -0.185 ± 0.098 |
| Scaffold attachment factor B1 P72G, Q15424 | -0.11 ± 0.048 |
| Scaffold attachment factor B1 P72H, Q15424 | -0.149 ± 0.073 |
| Scaffold attachment factor B1 P72I, Q15424 | -0.382 ± 0.11 |
| Scaffold attachment factor B1 P72K, Q15424 | -0.423 ± 0.091 |
| Scaffold attachment factor B1 P72L, Q15424 | -0.14 ± 0.048 |
| Scaffold attachment factor B1 P72M, Q15424 | -0.362 ± 0.08 |
| Scaffold attachment factor B1 P72N, Q15424 | -0.374 ± 0.11 |

Source: the Human Domainome abundance scans (Beltran et al. 2025)
